Test results taken from patent publication US20080124811A1.

Legend:
[1] = substrate: T1, BNP single alanine substituted peptide, F11 to alanine (human); test: BIAcore SPR, AM1 captured on goat anti-human Fc, peptide at 10 nM, 1800 s dissociation
T1 sequence (peptide, cyclic hBNP 1-32): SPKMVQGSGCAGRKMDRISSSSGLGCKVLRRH

[2] = substrate: T2, BNP single alanine substituted peptide, R13 to alanine (human); test: as above
T2 sequence (peptide, cyclic hBNP 1-32): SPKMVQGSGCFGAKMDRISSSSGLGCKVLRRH

B1: 106.3 AM1 chimeric antibody (antibody, V domains shown)
VH: QIQLVQSGPELRKPGETVKISCKGSGYTFTHYGINWVKQTPRKDLKWMGWINTHTGEAYYADDFKGRFAFSLETSANTAYLQINNLNNGDMGTYFCTRSHRFGLDYWGQGTSVTVSS
VL: DNVLTQSPPSLAVSLGQRATISCKANWPVDYNGDSYLNWYQQKPGQPPKFLIYAASNLESGIPARFSGSGSGTDFNLNIHPVEEEDAATYYCQQSNEDPFTFGSGTKLEIK
modifications: Conjugated to acridinium or biotinylated in the sandwich assays (Examples 4 and 7); the sites are not defined.
fold increase in off-rate against WT BNP [1]: > 10 fold
fold increase in off-rate against WT BNP [2]: > 10 fold
